Assay: soluble on expression in E. coli; label from the status in PepcDB or PDB records

Row | Sequence | soluble on expression in E. coli
1 | SPNNSKHKKKQQRRQQEAQKKSRAKQIETDKKNDEFLDTELDEVSPLVIDDDMTEFKNMPKVELHAHLSGSLSPETIKLIMESDETRAEEIMKKYKLEKPENMTGVFDCFPVIHAILRKPEAIRIAIRQTIKEFEEDNCVYLELRTSPKETDFMTYEDYLQVCIESFEAAKHEFPRIKTFLIVSLDRRMPFETAAHILGLIGEAQQRTNVIVGVELSGDPHLDGRRLLKLFVAARRFHGLGITIHLAEVLQNMADVEDYLNLRPDRIGHGTFLHTDPYTEYLTNKYKIPLGENLIQLHLIFLFFLEICLSSNVYSKTTTNYRNSHFNYWRKRGVPVFICTDDKGVIPGATLTEEYYKAAITFDLSTEELIGINQDALLNSFAYKYNVTDLTETFRKINNNVLD | not soluble
2 | MAHHHHHHMSNPWNAKLVEELLFRQYEKGEDVSMLLPPPPALSVDQYLKEYEQSTKVLFAYVRNGPANALTPQNINNPRMYGGTPTKGSSSMQRTGNQGGATCATTSSSSACGVDSKAQMQRHPRGLDGSQSAAPSLPLTAGDAAAGQGSMAPPEHIRKRIEWPATVPTNSALKSNSRSRVANLTTKRVAAQERVDPDLIFMQNPEELPLHTIFAKYPKAVESIAALRGGSGDWREDTFTEEEEILYKRELRYSHMGPSQCGFFRSNLIQR | not soluble
3 | MPMRYWLMKSEPDETSIDHLAAEPARLFEWTGVRNYQARNFMRDDMQPGDLLLFWHSSCPEPGIAGIAEVAAAAHADSSQFDPASPYHDPKSDPADPRWLCVDVRFVRKTRLLPPAELRRHPPLEGMTVLKRGNRLSITPVTAEEWAYLMDLLDIRRAGLEHHHHHH | soluble
4 | MMTRLPLGATLPDFPWDSLADAKKTASSHPDGLINLSVGSPVDEVAPGIRLALAEAAAAPGYPQTIGTQELRAAIVDSLQRRYHATSLGGVLPVVGTKEAIALLPTLLGIRGTVVIPEVAYPTYEVGALMAGATPLRCDAPHELPNDDIDLVFINSPSNPTGRVASVEELRSIVAWAQANDVIVASDECYLGLAWDGEAVSILDPRVNDGNLSNLLAIHSLSKSSNLASYRAGFLAGDEALIAELTEIRKHSGLMVPGPIQAAMVEALRDDDQEALQKLRYARRRALLMRALIDAGFTVEHSEAGLYLWATRGENCRATVDWFASHGILVAPGDFYGPDAHNFVRVALTTTDDNAEKVAARLQKGN | soluble
5 | MGSDKIHHHHHHMEMLFLLKNLYRDPLALSRFSQFRCLHISKGEIIQNLNETHEFQVCFVLKGSLCLFRDHIESMPLMAMQNEFFFISSLHQCKIKAMDEVQLVIHACNIVAPYLHSRTIEYLQDISIEEVKPVEVLPIYPLMRSYLDLLVDYMKNGTEIPDLHRAKEYELFSLFKICYKKNEIASIFRDALSNDLQFFVSVMTHYKACRTAKELAVLCGYNDTVFTQLFKKNFHGDTPYQWLQKQTSYEIEFKLKKSTLPIKQIMLDYHFKTFSHFTTYCKRNIGATPNEIRKKGEESRDTPSLETYSVSAND | not soluble
6 | MASHIVGYPRMGPKRELKFALESFWDGKSTAEDLQKVSADLRSSIWKQMSAAGTKFIPSNTFAHYDQVLDTTAMLGAVPPRYGYTGGEIGLDVYFSMARGNASVPAMEMTKWFDTNYHYIVPELGPEVNFSYASHKAVNEYKEAKALGVDTVPVLVGPVSYLLLSKAAKGVDKSFELLSLLPKILPIYKEVITELKAAGATWIQLDEPVLVMDLEGQKLQAFTGAYAELESTLSGLNVLVETYFADIPAEAYKTLTSLKGVTAFGFDLVRGTKTLDLVKAGFPEGKYLFAGVVDGRNIWANDFAASLSTLQALEGIVGKDKLVVSTSCSLLHTAVDLINETKLDDEIKSWLAFAAQKVVEVNALAKALAGQKDEALFSANAAALASRRSSPRVTNEGVQKAAAALKGSDHRRATNVSARLDAQQKKLNLPILPTTTIGSFPQTVELRRVRREYKAKKVSEEDYVKAIKEEIKKVVDLQEELDIDVLVHGEPERNDMVEYFGEQLSGFAFTANGWVQSYGSRCVKPPVIYGDVSRPKAMTVFWSAMAQSMTSRPMKGMLTGPVTILNWSFVRNDQPRHETCYQIALAIKDEVEDLEKGGIGVIQIDEAALREGLPLRKSEHAFYLDWAVHSFRITNCGVQDSTQIHTHMCYSHFNDIIHSIIDMDADVITIENSRSDEKLLSVFREGVKYGAGIGPGVYDIHSPRIPSSEEIADRVNKMLAVLEQNILWVNPDCGLKTRKYTEVKPALKNMVDAAKLIRSQLASAK | soluble
7 | MKVLDSRDFAKVKAIAIERASYRNIGALAVYIGSMTGMRISEVLALTWPDIDTKLCVIHVTRSWDHLYGTGFKPTKTDSSVRDIEISPSVIELLNKIHQEQAASYLRTGYRDEDQMIMRDPRHNVITDSACNKALHVIQNKAGIPEDKQITFHGLRHSHVSYLISKGVDIYYISKRLGHSDVTITMKVYGHLLDSQRKQEAHKAVLFMDQILEHHHHHH | not soluble
8 | MGKQLAKKITWAIENFSSLHSKKIYSDPFIVGGCKWRFLVYPKGNNVDYLFLYLEVADYESLSPEWRRHARYLLNVVNQNSVKRSKQNEEQKWFDVQSPRWGRLSMFPLNEINAKDSGFLVNGELKIVAEIEVLEVIGKLDVSEETSTIMESMDFNGFQLLPSQVDFVRHMFEKHPEIASEFRLKNPNLRAGYMSLLLSLIETLRQSPQELNKVDLAEGYVALRSITDAGFKVDWLEKKLVEISEKKNKEEAGETRMQEINEELESLKQKCLDLEAQLEKEKAEVFAAKSPLSFNDVF | not soluble
9 | MPSSGRGGAFFPDPCVFHGAYLPSGSSRWAKESTMFFIAKYKRNTEWLKMIFSNALHGVQEGSGFEWKAFVTLMPTELRVVSLSQELLRLWLVISYTVRDVRTYFFP | not soluble
10 | QADAGPDKELTLPVDSTTLDGSKSSDDQKIISYLWEKTQGPDGVQLENANSSVATVTGLQVGTYVFTLTVKDERNLQSQSSVNVIVKEE | soluble
11 | MRHAKSAYPDGIADHDRPLAPRGIREAGLAGGWLRANLPAVDAVLCSTATRARQTLAHTGIDAPARYAERLYGAAPGTVIEEINRVGDNVTTLLVVGHEPTTSALAIVLASISGTDAAVAERISEKFPTSGIAVLRVAGHWADVEPGCAALVGFHVPR | soluble
12 | MRTDPERFILDNAAIMHPPHVPELRLHLATEAHELWLKTEEELEEIGLPPPFWAFAWAGGQGLARYILDHPESVCGKRVLDFASGSGLVAIAAAKAGAAKVLAADIDPWTETAIRLNAALNGVDIGFTGLDLVGKPVDADVLLAGDVFYDRAFADLLVPWFVELTEKGMIVLVGDPGRAYLPKERLRAEATYQVPVTRALEDSDVKKTTVWRFILEHHHHHH | soluble
13 | MGSDKIHHHHHHMQAAWLLGALVVPQLLSFGHGARGPGREWEGGWGGALEEERERESQMLKNLQEALGLPTGVGNEDNLAENPEDKEVWETTETQGEEEEEEITTAPSSSPNPFPSPSPTPEDTVTYILGRLASLDAGLHQLHVRLHVLDTRVVELTQGLRQLRDAASDTRDSVQALKEVQDRAEQEHGRLEGCLKGLRLGHKCFLLSRDFETQAAAQARCKARGGSLAQPADRQQMDALSRYLRAALAPYNWPVWLGVHDRRSEGLYLFENGQRVSFFAWHRAFSLESGAQPSAATHPLSPDQPNGGVLENCVAQASDDGSWWDHDCERRLYFVCEFPF | not soluble
14 | FVEAIHAAEERVWITSPYFIPDEAVTAALTLAVLRGVDVRLLLPSRPDHYVVYAASSLYAFDAVRAGVRVFRYEPGFLHQKVVLVDNDITAIGSANLDNRSFRLNFELMLLTVDSDFSSQVESMLTADFNLAREISVQ | not soluble
15 | KERERLEEKLEDANERIAELVKLEERQRIARDLHDTLGQKLSLIGLKSDLARKLIYKDPEQAARELKSVQQTARTSLNEVRKIVSSMKGIRLKDELINIKQILEAADIMFIYEEEKWPENISLLNENILSMCLKEAVTNVVKHSQAKTCRVDIQQLWKEVVITVSDDGTFKGEENSFSKGHGLLGMRERLEFANGSLHIDTENGTKLTMAIPNNSK | not soluble
16 | MGSDKIHHHHHHMQDFLEFQSISKGYPGVQALSEVSFSVRKGAVHGLMGENGAGKSTLIRVLSGDQAADTGEIRINGEPQHYRSVRDAFNAGVIVIHQELQLVPELTVAENLWLGRFPGKAGVIDRRQLIRVVSDRLAEIGIDVDPEAKVASLSIGERQMVEIAKAVMTDARVIALDEPTSSLSSRESEILFALIDRLRSNGTVILYVSHRLDEIFRLCNSLTVLRDGRLAAHHPDISKVGREQIIAEMVGREISNIWGWRARTLGAARLTVERVSGANLPQPISFTVRAGEILGFFGLIGAGRSEMARLVYGADRRRQGKVLVDGLAVPADSPRLSIRAGVVLCPEDRKFDGIVQGRSIEENMAISSRRHFSPFGVVDKGKEAELAERFIAKLRVRTPSRHQDIVNLSGGNQQKVILGRWLSEEGVKVLLIDEPTRGIDVGAKSEIYEILYELAAQGMAIVVISSELPEVMGIADRILVMCEGRIAAEIDRSDFDEHRILAAALPDASATTATLPEQVS | not soluble
17 | GPNSGTLALLLDEGSKQLPQAIIIGVKKGGTRALLEFLRVHPDVRAVGAEPHFFDRSYDKGLAWYRDLMPRTLDGQITMEKTPSYFVTREAPARISAMSKDTKLIVVVRDPVTRAISDYTQTLSKRPDIPTFESLTFKNRTAGLIDTSWSAIQIGIYAKHLEHWLRHFPIRQMLFVSGERLISDPAGELGRVQDFLGLKRIITDKHFYFNKTKGFPCLKKAEGSSRPHCLGKTKGRTHPEIDREVVRRLREFYRPFNLKFYQMTGHDFGWDG | soluble
18 | MATFPHFGTAAIHVGQEPEQWDMNQVVPPISLSSTYKQDNPGEPKGHDYSRAGNPTRDVLQKNLAALEDAKHCQVFSSGLAATSAIINLLKYGDHIVCSDDVYGGTQRYIRRVAVPNHGLEVDSVDLTDVQNLEKAIKPNTKMVWFESPSNPLLKVVDIAAVVQTAKKANPEIVVVVDNTFMSPYFQRPISLGADVVVHSITKYINGHSDVVMGAVITDNDEFQQHLFFMQLAVGAVPSPFDCFLVNRGLKTLHIRMRAHYENALAVAKYLEANDRIESVLYPALPSHPQHEVHEKQTKGMSGMISFYLKGELQESRAFLSALKVFTLAESLGGYESLAELPSIMTHASVPAETRIVLGITDNLIRISVGIEDLDDLVADLDQALKIAIPKV | not soluble
19 | MLIRQVTMEDLEDIIRIENDNFSAEEAATSQALKERIEVIADTFLVAEQDGQIAGYVEGPVINSRYLTDDLFHKVKPNQEKSGYIAVTSLSVDKAFQKQGVGTTLLAALKDLTVAQNRLGIHLTCHDYLISYYEMNGFSNEGLSESTHGGTVWYNMIWENPKI | not soluble
20 | MRLLVQNVHKRFGKLEALKGVSLELGAGEILGLLGPNGAGKTTLIKVVLGLLLPDGGEVVLEEGGARRRPQGHEFGVLLEGSRNLYVNLSLLVNALYFGGIRGLPPKEVRPRFEAWLERFGLKDRLHAPLASLSRGMQQKAALALALALKPRFLLLDEPTLGLDPVSRREFEGILLELKKEGWGILLTSHDLEVVERVSDRVAFLHRGEVRRQGPTRVLLREWAGEGYRVRLAEPKAEALLQALGPGWSAEGPEVLFFLGPWEALREALGAFPVEVLEVSRGTPSLEALFLHLFGEARPSPSA | soluble
21 | MGHHHHHHSHMKQWKEKKKKKKPIQEPEVPQIDVPNLKPIFGIPLADAVERTMMYDGIRLPAVFRECIDYVEKYGMKCEGIYRVSGIKSKVDELKAAYDREESTNLEDYEPNTVASLLKQYLRDLPENLLTKELMPRFEEACGRTTETEKVQEFQRLLKELPECNYLLISWLIVHMDHVIAKELETKMNIQNISIVLSPTVQISNRVLYVFFTHVQELFGNVVLKQVMKPLRWSNMATMPTLPETQAGIKEE | soluble
